Assay results reported in article PMC10058639.

Assays:
[1] = biological target: recombinant truncated oyster intraflagellar transport protein 74-like protein (roIFT) (Crassostrea gigas (Pacific oyster)); test: ELISA
[2] = biological target: recombinant truncated oyster tumor necrosis factor (roTNF) (Crassostrea gigas (Pacific oyster)); test: ELISA

Substance	P/N (OD450 of sample over negative control) [1]	P/N (OD450 of sample over negative control) [2]
P protein of HuNoV GI.1, recombinant, purified (domain or fragment)	6.97	5.88
P protein of HuNoV GII.4, recombinant, purified (domain or fragment)	3.95	5.33
